Laboratory results published in patent US20210040201A1 (Innovent, published 2021).
Where a chain is given by its changes, count along the chain named.

T1: Human TIGIT expressed on the surface of cells (human, UniProt Q495A1 22-244)
T1 sequence: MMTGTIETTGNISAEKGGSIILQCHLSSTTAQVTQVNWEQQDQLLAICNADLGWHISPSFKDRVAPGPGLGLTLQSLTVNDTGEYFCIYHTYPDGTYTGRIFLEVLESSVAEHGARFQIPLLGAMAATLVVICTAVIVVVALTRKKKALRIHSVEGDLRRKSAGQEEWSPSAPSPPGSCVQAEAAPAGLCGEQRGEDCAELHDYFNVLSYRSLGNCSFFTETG

T2: Human TIGIT-his (ACRO, TIT-H52H3) (human, UniProt Q495A1 22-141)
T2 construct: Bought protein
T2 sequence: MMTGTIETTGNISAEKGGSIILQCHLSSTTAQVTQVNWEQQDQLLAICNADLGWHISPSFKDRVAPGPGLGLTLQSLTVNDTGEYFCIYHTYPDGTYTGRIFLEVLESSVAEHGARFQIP

T3: Mouse TIGIT-his (ACRO, TIT-M52E6) (mouse, UniProt P86176 26-143, limits assumed)
T3 construct: Bought protein
T3 sequence (looked up): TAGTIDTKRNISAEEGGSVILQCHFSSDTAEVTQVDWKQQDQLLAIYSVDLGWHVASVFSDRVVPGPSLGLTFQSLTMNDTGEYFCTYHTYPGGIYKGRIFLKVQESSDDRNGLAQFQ

B1: ADI-30268 (antibody, human IgG4 S228P, kappa, F234A L235A, V domains shown)
VH: QVQLVQSGAEVKKPGASVKVSCKASGYTFGSYYMGWVRQAPGQGLEWMGIIDPSGGRTSYARKFQGRVTMTRDTSTSTVYMELSSLRSEDTAVYYCARARTPSSWPYGMDVWGQGTTVTVSS
VL: DIQMTQSPSSLSASVGDRVTITCRASQSINSYLNWYQQKPGKAPKLLIYAASSLQSGVPSRFSGSGSGTDFTLTISSLQPEDFATYYCQQSLLTPFTFGGGTKVEIKR
B2: ADI-30278 (antibody, human IgG4 S228P, kappa, F234A L235A, V domains shown)
VH: QVQLVQSGAEVKKPGASVKVSCKASGYTFTEYYMHWVRQAPGQGLEWMGIISPSAGSTKYAQKFQGRVTMTRDTSTSTVYMELSSLRSEDTAVYYCARDHDIRLAGRLADYWGQGTLVTVSS
VL: DIQMTQSPSSVSASVGDRVTITCRASQGISSWLAWYQQKPGKAPKLLISAASSLQSGVPSRFSGSGSGTDFTLTISSLQPEDFATYYCQQAVILPITFGGGTKVEIKR
notes: Intact antibody, expressed in yeast and also in CHO cells (the assay field says which)
B3: ADI-30293 (antibody, human IgG4 S228P, kappa, F234A L235A, V domains shown)
VH: EVQLVESGGGLVQPGGSLRLSCAASGFTFSSYSMNWVRQAPGKGLEWVSYISSSGTINYADSVKGRFTISRDNAKNSLYLQMNSLRAEDTAVYYCARHRIADSPSRAFDIWGQGTMVTVSS
VL: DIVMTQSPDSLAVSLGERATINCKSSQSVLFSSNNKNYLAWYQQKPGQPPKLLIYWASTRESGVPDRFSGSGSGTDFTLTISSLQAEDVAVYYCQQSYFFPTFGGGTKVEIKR
B4: ADI-30286 (antibody, human IgG4 S228P, kappa, F234A L235A, V domains shown)
VH: EVQLLESGGGLVQPGGSLRLSCAASGFTFGPYGMSWVRQAPGKGLEWVSAISGSGASTWYADSVKGRFTISRDNSKNTLYLQMNSLRAEDTAVYYCAKDPGTHYSGYYYIWRYWGQGTLVTVSS
VL: EIVMTQSPATLSVSPGERATLSCRASQSVSSNLAWYQQKPGQAPRLLIYSASTRATGIPARFSGSGSGTEFTLTISSLQSEDFAVYYCQQYVPHPPFTFGGGTKVEIKR
B5: ADI-30288 (antibody, human IgG4 S228P, kappa, F234A L235A, V domains shown)
VH: B4 VH with Y60H, H103D, Y104S, S105T
VL: B4 VL
B6: ADI-30336 (antibody, human IgG4 S228P, kappa, F234A L235A, V domains shown)
VH: QLQLQESGPGLVKPSETLSLTCTVSGGSISSSRYYWGWIRQPPGKGLEWIGSIYYSGSTYYNPSLKSRVTISVDTSKNQFSLKLSSVTAADTAVYYCARDGLYHTPEYFQHWGQGTLVTVSS
VL: EIVLTQSPATLSLSPGERATLSCRASQSVSSYLAWYQQKPGQAPRLLIYDASNRATGIPARFSGSGSGTDFTLTISSLEPEDFAVYYCQQRFAHPYTFGGGTKVEIKR
notes: as for B2
B7: 10A7 (anti-human TIGIT reference antibody from Genentech) (antibody, V domains shown)
VH: EVQLVESGGGLTQPGKSLKLSCEASGFTFSSFTMHWVRQSPGKGLEWVAFIRSGSGIVFYADAVRGRFTISRDNAKNLLFLQMNDLKSEDTAMYYCARRPLGHNTFDSWGQGTLVTVSS
VL: DIVMTQSPSSLAVSPGEKVTMTCKSSQSLYYSGVKENLLAWYQQKPGQSPKLLIYYASIRFTGVPDRFTGSGSGTDYTLTITSVQAEDMGQYFCQQGINNPLTFGDGTKLEIKR
B8: 22G2 (anti-human TIGIT reference antibody from BMS) (antibody, V domains shown)
VH: QVHLQESGPGLVKPSETLSLTCTVSGGSVSSGIYYWSWIRQPPGKGLEWIGYIYYSGSTNYNPSLKSRVTISVDTSKNQFSLKLSSVTAADTAVYYCARDYYVSGNYYNVDYYFFGVDVWGQGTTVTVSS
VL: EIVLTQSPATLSLSPGERATLSCRASQSVSSYLAWYQQKPGQAPRLLIYDASNRATGIPARFSGSGSGTDFTLTISSLEPEDFAVYYCQQRSNWPPLFTFGPGTKVDIK
B9: ADI-27238 (antibody, human IgG4 S228P, kappa, F234A L235A, V domains shown)
VH: B1 VH with G30T, G35S, D52N, R57S, R62Q, T101Y
VL: B1 VL
B10: ADI-30267 (antibody, human IgG4 S228P, kappa, F234A L235A, V domains shown)
VH: B1 VH with G30R, G35S, Y60F, R62Q, T101Y, S103E
VL: B1 VL
B11: ADI-30311 (antibody, human IgG4 S228P, kappa, F234A L235A, V domains shown)
VH: QLQLQESGPGLVKPSETLSLTCTVSGGSIASSVYYWGWIRQPPGKGLEWIGSIYYSGSTWYNPSLKSRVTISVDTSKNQFSLKLSSVTAADTAVYYCAREAGRTGTGLLFDYWGQGTLVTVSS
VL: DIQMTQSPSTLSASVGDRVTITCRASQSISSWLAWYQQKPGKAPKLLIYKASSLESGVPSRFSGSGSGTEFTLTISSLQPDDFATYYCQQYGILPRTFGGGTKVEIKR
B12: ADI-30272 (antibody, human IgG4 S228P, kappa, F234A L235A, V domains shown)
VH: B2 VH with K59S, R103A, L104A
VL: B2 VL
B13: ADI-27297 (antibody, human IgG4 S228P, kappa, F234A L235A, V domains shown)
VH: B2 VH with E31S, S52N, A55G, K59S, R103A, L104A
VL: B2 VL
B14: ADI-30296 (antibody, human IgG4 S228P, kappa, F234A L235A, V domains shown)
VH: B3 VH with F29I, S30G, S31G, G55S, N58H, A101G, D102R
VL: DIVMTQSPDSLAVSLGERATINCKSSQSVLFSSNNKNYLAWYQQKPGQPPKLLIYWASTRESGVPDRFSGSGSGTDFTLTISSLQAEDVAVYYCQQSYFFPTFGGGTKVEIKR
B15: ADI-27243 (antibody, human IgG4 S228P, kappa, F234A L235A, V domains shown)
VH: B6 VH
VL: B6 VL with H94F
B16: ADI-30302 (antibody, human IgG4 S228P, kappa, F234A L235A, V domains shown)
VH: B6 VH with S30G, R33Q, Y55R, S58G
VL: B6 VL with H94F
B17: ADI-30306 (antibody, human IgG4 S228P, kappa, F234A L235A, V domains shown)
VH: B11 VH with A30S, V33L, W60F, L65F, T104G, G105T
VL: B11 VL
notes: as for B2

biological target: T1, Human TIGIT expressed on the surface of …; test: cell-based or functional assay

Row | EC50, MOA-based assay (luciferase reporter under IL2 promoter), CHO-expressed antibody [nM] | Binder
1 | 0.506 | B1
2 | 0.186 | B2
3 | 1.62 | B3
4 | 0.396 | B4
5 | 0.384 | B5
6 | 1.27 | B6

biological target: T1, Human TIGIT expressed on the surface of …; test: flow cytometry on CHOS cells expressing human TIGIT; reference antibody

Row | EC50 [nM] | Binder
7 | 0.269 | B7
8 | 0.511 | B8

biological target: T1, Human TIGIT expressed on the surface of …; test: flow cytometry competition against 50 nM human CD155-mouse IgG2a Fc on CHOS cells expressing human TIGIT; positive control

Row | IC50 [nM] | Binder
9 | 0.741 | B7
10 | 0.179 | B8

biological target: T1, Human TIGIT expressed on the surface of …; test: as above; remark: another data set of the same source

Row | IC50 [nM] | Binder
11 | 0.325 | B7
12 | 0.607 | B8

biological target: T1, Human TIGIT expressed on the surface of …; test: cell-based or functional assay; remark: another data set of the same source

Row | EC50, MOA-based assay (luciferase reporter under IL2 promoter) [nM] | EC50, MOA-based assay (luciferase reporter under IL2 promoter), yeast-expressed antibody [nM] | Binder
13 | ~77.8 | – | B7
14 | – | 68.7 | B9
15 | – | 1.22 | B1
16 | – | 2.06 | B10
17 | – | 1.82 | B11
18 | 2.11 | – | B8
19 | – | 1.49 | B12
20 | – | 0.523 | B2
21 | – | ~25100 | B13
22 | – | 1.56 | B3
23 | – | 1.09 | B14
24 | – | 297 | B15
25 | – | 0.983 | B16
26 | – | 3.33 | B6

biological target: T1, Human TIGIT expressed on the surface of …; test: flow cytometry on CHO cells overexpressing human TIGIT; reference antibody in the run with CHO-expressed antibodies

Row | EC50 [nM] | Binder
27 | 0.195 | B7
28 | 0.725 | B8

biological target: T2, Human TIGIT-his (ACRO, TIT-H52H3); test: BLI (ForteBio), antibody loaded on AHQ sensor, 100 nM TIGIT-his, 1:1 model, monovalent

Row | Kd [nM] | Binder
29 | 3.5 | B8

biological target: T4, Monkey TIGIT-his (ACRO, TIT-05223) (monkey); test: as above
T4 construct: Bought protein

Row | Kd [nM] | Binder
30 | 4.2 | B8

biological target: T3, Mouse TIGIT-his (ACRO, TIT-M52E6); test: BLI (ForteBio), CHO-expressed antibody loaded on AHQ sensor
Experimental: The sensor with loaded antibodies was exposed to 100 nM TIGIT-his antigens until to a plateau, and then transferred to an assay buffer for dissociation for at least 2 min to measure the dissociation rate. Kinetic analysis was performed using a 1:1 binding model.

Row | binding result | Binder
31 | no binding (tested: 100 nM TIGIT-his) | B17
32 | no binding (tested: 100 nM TIGIT-his) | B2
33 | no binding (tested: 100 nM TIGIT-his) | B6
